Several values for one entry are separate records, joined by “and”; a condition that tells them apart may be missing. Identical values can stand only once.
Assays:
[1] = molecular target: human IGF-1 receptor (human) (UniProt P08069); test: competition SPA, [125I]IGF-1
[2] = molecular target: human insulin receptor (human) (UniProt P06213); test: competition SPA, [125I]insulin
[3] = molecular target: type A insulin receptor (UniProt P06213); test: cell-based or functional assay
[4] = molecular target: type B insulin receptor (UniProt P06213); test: cell-based or functional assay
[5] = molecular target: human IGF-1 receptor (human) (UniProt P08069); test: cell-based or functional assay

| Substance | % IGF-1 (in test) [1] | % native IGF-1 activity (0.55 nM) [1] | % insulin (in test) [2] | % native insulin activity (0.6 nM) [2] | IC50 [2] | % Insulin Activity (in vitro, assay not named) [3] | % Insulin Activity (in vitro, assay not named) [4] | % Insulin Activity (in vitro, assay not named) [5] |
| --- | --- | --- | --- | --- | --- | --- | --- | --- |
| IGF-1 A:In (1-17)-IGF-1 B(18-30) (from UniProt P05019 18-30) (ligand) | 0.9% | 0.9% | 11.3% and 20.1% | 22.5% and 24.2% | 2.67 nM and 2.48 nM | – | – | – |
| MIU-68: B2, B22-PEG10K di-PEGylated MIU-35 (ligand) | – | – | – | – | – | 0.4% | 0.1% | < 0.1% |
| MIU-69: B2, A14-PEG10K di-PEGylated MIU-35 (ligand) | – | – | – | – | – | 1% | 0.5% | < 0.1% |
| MIU-67: B2, C8-PEG10K di-PEGylated MIU-35 (ligand) | – | – | – | – | – | 0.2% | 0.1% | < 0.1% |
